Biological target: pre-B cell receptor (pre-BCR) on the surface of live BCP-ALL cells (human) (UniProt P15814)
Experiment: single particle tracking with hidden Markov model (Viterbi plot), one receptor pair on 697 cells

pre-B cell receptor (pre-BCR) on the surface of live BCP-ALL cells, sequence (chain): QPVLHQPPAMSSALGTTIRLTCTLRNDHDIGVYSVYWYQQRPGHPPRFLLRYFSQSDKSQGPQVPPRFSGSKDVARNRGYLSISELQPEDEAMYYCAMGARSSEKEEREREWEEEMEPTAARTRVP
pre-B cell receptor (pre-BCR) on the surface of live BCP-ALL cells, sequence (P15814 38-213): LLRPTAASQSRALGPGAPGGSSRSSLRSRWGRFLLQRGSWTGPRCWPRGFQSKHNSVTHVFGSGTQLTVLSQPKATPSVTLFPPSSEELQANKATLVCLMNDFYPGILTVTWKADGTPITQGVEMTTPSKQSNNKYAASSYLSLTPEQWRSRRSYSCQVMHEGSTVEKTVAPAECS
pre-B cell receptor (pre-BCR) on the surface of live BCP-ALL cells, sequence (P11912 33-226): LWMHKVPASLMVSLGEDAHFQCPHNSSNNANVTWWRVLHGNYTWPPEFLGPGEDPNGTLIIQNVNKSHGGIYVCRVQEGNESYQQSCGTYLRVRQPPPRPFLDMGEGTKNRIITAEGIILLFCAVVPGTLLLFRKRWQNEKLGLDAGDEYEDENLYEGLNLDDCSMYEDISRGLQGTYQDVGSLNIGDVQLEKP
pre-B cell receptor (pre-BCR) on the surface of live BCP-ALL cells, sequence (P40259 29-229): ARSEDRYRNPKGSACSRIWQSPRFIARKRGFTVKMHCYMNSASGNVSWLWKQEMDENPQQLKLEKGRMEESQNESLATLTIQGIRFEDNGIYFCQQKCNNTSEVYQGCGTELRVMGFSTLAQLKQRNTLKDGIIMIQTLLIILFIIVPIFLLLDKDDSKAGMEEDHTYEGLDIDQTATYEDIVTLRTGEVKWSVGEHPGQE

pre-B cell receptor (pre-BCR) on the surface of live BCP-ALL cells (from UniProt P15814 38-213; P11912 33-226; P40259 29-229)
homo-interaction lifetime: < 3 s
